Test results taken from patent US20090076249A1 (published 2009).

Experiments:
Experiment in all cases: cell-based or functional assay
human CD38 [1] = target: T1, human CD38 (human, UniProt P28907 1-300)
human CD38 [2] = target: T1, human CD38; remark: listed apart in the source
human CD38 [3] = target: T1, human CD38; remark: listed apart in the source
human CD38 [4] = target: T1, human CD38; remark: listed apart in the source

| Binder | EC50 of ADCC (51Cr release), Daudi-luc target cells (human CD38 [1]) | EC50 of ADCC (51Cr release), fresh MM tumor cells (human CD38 [1]) | EC50 of CDC (PI-positive cells), CD38-CHO cells (human CD38 [2]) | EC50 of CDC (PI-positive cells), Daudi-luc cells (human CD38 [2]) | Log EC50 of ADCC, Daudi target cells (n=5) (human CD38 [3]) | EC50 of CDC, CHO-CD38 cells (n = 2) (human CD38 [4]) |
| --- | --- | --- | --- | --- | --- | --- |
| -003 (antibody, V domains shown) VH: not shown VL: DIQMTQSPSSLSASVGDRVTITCRASQGISSWLAWYQQKPEKAPKSLIYAASSLQSGVPSRFSGSGSGTDFTLTISSLQPEDFATYYCQQYNSYPRTFGQGTKVEIK | 0.009 µg/mL | 0.027 µg/mL | 3.14 µg/mL | > 90 µg/mL | 1.17 | 4.5 µg/mL |
| -024 (antibody, V domains shown) VH: EVQLVQSGAEVKKPGESLKISCKGSGYSFSNYWIGWVRQMPGKGLEWMGIIYPHDSDARYSPSFQGQVTFSADKSISTAYLQWSSLKASDTAMYYCARHVGWGSRYWYFDLWGRGTLVTVSS VL: EIVLTQSPATLSLSPGERATLSCRASQSVSSYLAWYQQKPGQAPGLLIYDASNRASGIPARFSGSGSGTDFTLTISSLEPEDFAVYYCQQRSNWPLTFGGGTKVEIK | 0.0097 µg/mL | 0.056 µg/mL | 0.24 µg/mL | > 90 µg/mL |  |  |
